The source of these data is patent publication US20230272011A1 (AVACTA LIFE SCIENCES, published 2023).

Usually EC50 stands for the concentration at which the effect is half-maximal. Lower therefore signals an effect from little substance. The term Kd denotes the concentration at which binding is half-saturated. A higher Kd goes with lower affinity. Broadly, the koff is a measure of how fast the partners let go of each other. In general, kon refers to the second-order rate constant of association. One may read the EC50 (read off the curve) as the concentration that produces a half-maximal response. Low values mean greater potency, high ones weaker potency. As usually defined, the IC50 is the concentration needed to halve the response being measured.

In experiment [1] the target is T1, cynomolgus serum albumin (cynomolgus).
T1 construct: also called CSA; cyno serum albumin
T1 sequence (A2V9Z4 25-608): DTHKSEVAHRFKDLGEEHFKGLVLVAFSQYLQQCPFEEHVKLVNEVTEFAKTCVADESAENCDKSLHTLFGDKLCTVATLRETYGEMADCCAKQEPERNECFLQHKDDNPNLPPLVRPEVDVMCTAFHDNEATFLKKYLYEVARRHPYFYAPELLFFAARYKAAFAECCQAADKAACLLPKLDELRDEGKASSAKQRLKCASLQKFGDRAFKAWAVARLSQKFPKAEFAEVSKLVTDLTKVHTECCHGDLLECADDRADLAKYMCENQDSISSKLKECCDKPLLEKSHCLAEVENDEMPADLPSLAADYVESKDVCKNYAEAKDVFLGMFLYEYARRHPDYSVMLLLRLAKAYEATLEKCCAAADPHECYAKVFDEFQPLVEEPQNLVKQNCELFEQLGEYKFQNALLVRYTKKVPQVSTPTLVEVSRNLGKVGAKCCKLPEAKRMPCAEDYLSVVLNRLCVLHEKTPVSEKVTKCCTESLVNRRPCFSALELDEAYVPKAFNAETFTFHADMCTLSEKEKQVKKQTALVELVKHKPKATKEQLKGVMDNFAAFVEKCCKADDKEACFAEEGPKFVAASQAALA
In words: binding ELISA, coated albumin, pH 7.4. As to the method:
(§1) Briefly, ELISA was performed as follow:
(§2) Human (Sigma-Aldrich); Cynomolgus and Mouse (Abcam); Equine (Abcam); Canine (Abcam); Mouse (Sigma-Aldrich); Rabbit (Sigma-Aldrich); Porcine (Sigma-Aldrich);, and Rat (Sigma-Aldrich) serum albumin were coated overnight on 96 well plates (Corning Costar) at 1 μg/ml in PBS at the appropriate pH (pH 6.0 or 7.4). Plates were saturated using 5% Casein (Sigma-Aldrich) buffer in PBS. […] Plates were then washed and AFFIMER® proteins were detected using a biotinylated polyclonal antibody anti-Cystatin (R&D System) for 90 minutes. After washing, streptavidin-HRP (Thermo Fisher Scientific) was added and incubated for 30 minutes.

A further experiment concerns the target rabbit serum albumin (rabbit, UniProt P49065 25-608). Briefly: binding ELISA, coated albumin, pH 7.4. As to the method:
as §1, §2
A general note: ELISA stands for enzyme-linked immunosorbent assay.

For the next experiment, the target named is equine serum albumin (equine, UniProt P35747 25-607). In words: binding ELISA, coated albumin, pH 7.4. The procedure: as §1, §2
Chain of equine serum albumin (P35747 25-607 limits assumed): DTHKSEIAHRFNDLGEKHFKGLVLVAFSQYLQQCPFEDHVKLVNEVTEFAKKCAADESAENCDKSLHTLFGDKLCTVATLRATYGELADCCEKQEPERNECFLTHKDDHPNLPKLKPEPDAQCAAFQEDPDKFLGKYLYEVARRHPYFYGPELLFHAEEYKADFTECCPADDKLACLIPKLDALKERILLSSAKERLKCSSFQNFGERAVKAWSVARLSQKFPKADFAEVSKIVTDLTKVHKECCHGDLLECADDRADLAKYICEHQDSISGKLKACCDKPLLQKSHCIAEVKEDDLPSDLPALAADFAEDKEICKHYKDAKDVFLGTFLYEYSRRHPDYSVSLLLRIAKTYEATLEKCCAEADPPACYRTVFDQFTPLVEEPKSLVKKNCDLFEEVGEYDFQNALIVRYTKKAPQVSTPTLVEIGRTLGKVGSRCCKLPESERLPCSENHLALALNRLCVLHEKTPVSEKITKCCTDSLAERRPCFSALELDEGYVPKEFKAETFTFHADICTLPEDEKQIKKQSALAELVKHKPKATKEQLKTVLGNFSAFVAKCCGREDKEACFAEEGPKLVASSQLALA
Experiment [2] has as its target T2, canine serum albumin (canine, UniProt P49822 25-608). In words: binding ELISA, coated albumin, pH 7.4. As to the method: as §1, §2
In the next experiment the target is porcine serum albumin (porcine, UniProt P08835 25-607). In words: binding ELISA, coated albumin, pH 7.4. As to the method: as §1, §2
Chain of porcine serum albumin (P08835 25-607 limits assumed): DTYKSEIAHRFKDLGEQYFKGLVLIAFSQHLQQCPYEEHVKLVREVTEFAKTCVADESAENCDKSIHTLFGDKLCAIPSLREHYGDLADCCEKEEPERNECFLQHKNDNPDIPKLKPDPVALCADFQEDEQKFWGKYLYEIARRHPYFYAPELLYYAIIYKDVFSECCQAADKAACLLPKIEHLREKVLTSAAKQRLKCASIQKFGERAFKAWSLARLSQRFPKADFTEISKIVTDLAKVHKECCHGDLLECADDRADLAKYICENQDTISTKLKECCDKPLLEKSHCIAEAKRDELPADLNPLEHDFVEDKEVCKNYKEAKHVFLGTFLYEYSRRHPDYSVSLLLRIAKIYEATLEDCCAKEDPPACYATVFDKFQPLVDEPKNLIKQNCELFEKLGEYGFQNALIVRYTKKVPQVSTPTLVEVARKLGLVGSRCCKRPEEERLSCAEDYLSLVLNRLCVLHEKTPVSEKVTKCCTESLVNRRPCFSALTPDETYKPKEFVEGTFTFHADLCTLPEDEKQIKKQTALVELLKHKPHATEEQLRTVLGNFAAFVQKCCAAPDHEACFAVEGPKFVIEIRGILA
A further experiment addresses rat serum albumin (rat, UniProt P02770 25-608). In words: binding ELISA, coated albumin, pH 7.4. The procedure: as §1, §2
Experiment [3] deals with T3, human serum albumin (human, UniProt P02768 25-609).
T3 construct: mature; Bought protein; biotinylated in the Octet and HTRF assays; also called HSA; HuSA
Briefly: binding ELISA, coated albumin, pH 7.4. The procedure: as §1, §2

Experiment [4] deals with T1, cynomolgus serum albumin. In words: BLI (Octet), biotinylated albumin on SA sensor, pH 6.0. As to the method: (§3) Biotinylated antigen was captured onto SA sensors at 1 μg/ml for 600 seconds in a buffer comprising PBS-T (0.01% Tween 20)+1% casein at either pH 6.0 or 7.4. Association was carried out for 300 seconds and dissociation for 600 seconds, and regeneration was performed using 10 mM glycine pH 1.5 (GE Healthcare) for 3×5 seconds. All steps were carried out at 1000 rpm and 25° C. Purified AFFIMER® polypeptide in two-fold serial dilutions was analyzed at a starting concentration of approximately 10× K_{D value}. Kinetics analyses were carried out using the Octet data analysis software, subtracting the reference sensor (loaded with antigen), aligning the Y-axis to baseline, and using inter-step correction to align association to dissociation. Savitzky-Golay filtering was applied and the data processed. Analysis of the data was carried out with a 1:1 model, global fit, Rₘₐₓ unlinked by sensor.
On the technique in general: In BLI a coated tip is dipped into the sample, and binding shifts an interference pattern.

Experiment [5] concerns the target T3, human serum albumin. The description is as above. As to the method:
as §3

Experiment [6] concerns the target T4, mouse serum albumin (mouse, UniProt P07724 25-608).
T4 construct: also called MSA
The experiment is described as above. The procedure:
as §3

Experiment [7] has as its target T1, cynomolgus serum albumin. In words: BLI (Octet), biotinylated albumin on SA sensor, pH 7.4. As to the method:
as §3

The target of experiment [8] is T3, human serum albumin. Described as above. The procedure: as §3
The target of experiment [9] is T4, mouse serum albumin. Described as above. The procedure: as §3
For experiment [10], the target named is T1, cynomolgus serum albumin. In words: SPR (Biacore T200), albumin amine-coupled to CM5, Affimer analyte, pH 7.4. The procedure: (§4) Affinities for mouse, human, and cynomolgus serum were also measured at pH 7.4 for four (4) AFFIMER® binders using surface plasmon resonance (SPR) (FIG. 5, Table 5). […] A concentration titration of AFFIMER® monomers was run as analyte at a flow rate of 30 μl/min or 60 μl/min. Fc2-1, Fc3-1 and Fc4-1 kinetic data was blank subtracted and fit to a 1:1 Langmuir binding model (BIAcore Evalution software; GE) to calculate KD values.
(Surface plasmon resonance follows binding to a sensor surface in real time, without labels.)

Experiment [11] addresses T3, human serum albumin. Described as above. As to the method: as §4
The target in experiment [12] is T4, mouse serum albumin. The description is as above. As to the method: as §4
Experiment [13] addresses T3, human serum albumin. In words: binding ELISA on coated albumin, pH 6.0, panel 'HSA Binding at pH 6.0'. As to the method: as §1, §2
The target of experiment [14] is T1, cynomolgus serum albumin. Briefly: Octet biolayer interferometry, biotinylated albumin on SA sensors, pH 6.0. As to the method:
as §3

The target of experiment [15] is T3, human serum albumin. The experiment is described as above. The procedure:
as §3

Experiment [16] concerns the target T4, mouse serum albumin. The description is as above. The procedure:
as §3

In experiment [17] the target is T1, cynomolgus serum albumin. In words: Octet biolayer interferometry, biotinylated albumin on SA sensors, pH 7.4. As to the method:
as §3

Experiment [18] concerns the target T3, human serum albumin. Described as above. As to the method:
as §3

For experiment [19], the target named is T4, mouse serum albumin. The description is as above. The procedure:
as §3

The target in experiment [20] is T2, canine serum albumin. In words: binding ELISA on coated albumin, pH 6.0, panel 'Canine SA Binding at pH 6.0'. As to the method: as §1, §2
In experiment [21] the target is T1, cynomolgus serum albumin. Briefly: Octet biolayer interferometry, pH 7.4. As to the method: as §3
(§5) AFFIMER® polypeptides were incubated with AcTEV for 1 hour at 30° C. as recommend by the manufacturer (Invitrogen) and removal of cleaved His tag by binding NiNTA resin (Generon) and collecting the cleaved protein flow through. […] Pharmacokinetic profile of IV-injected His tag cleaved AFFIMER® protein compared to C-terminally His-tagged AFFIMER® protein was evaluated.

The target of experiment [22] is T3, human serum albumin. In words: Octet biolayer interferometry, pH 7.4. As to the method:
as §3, §5

Experiment [23] has as its target T4, mouse serum albumin. In words: Octet biolayer interferometry, pH 7.4. As to the method:
as §3, §5

Experiment [24] concerns the target T1, cynomolgus serum albumin. In words: Octet biolayer interferometry, pH 6.0. As to the method:
as §3, §5

Experiment [25] addresses T3, human serum albumin. Briefly: Octet biolayer interferometry, pH 6.0. As to the method:
as §3, §5

Experiment [26] concerns the target T4, mouse serum albumin. Briefly: Octet biolayer interferometry, pH 6.0. The procedure:
as §3, §5

A further experiment concerns the target T5, mPD-L1 (mouse, UniProt Q9EP73 19-238, limits assumed).
T5 construct: May be the same reagent as the mouse PD-L1-Fc of the Biacore run
Briefly: competition ELISA: mPD-L1 pre-incubated with the AFFIMER polypeptide and added to coated mPD-1; blocked ligand mPD-1. The procedure:
Briefly, PD-1 was coated overnight on the plate at 1 μg/ml in carbonate buffer. Then plates were saturated using 5% Casein/PBS buffer. […] After saturation, the mix was added to the plates and incubated for 90 minutes. Plates were then washed and the detection polyclonal antibody, biotinylated anti-PD-L1, was added. After washing the plates, streptavidin-HRP was added for 30 minutes. After a final wash, development of the reaction was performed using TMB (Pierce) and the plates were read using a plate reader at 450 nm (FIG. 26C).

T4 sequence (P07724 25-608 limits assumed): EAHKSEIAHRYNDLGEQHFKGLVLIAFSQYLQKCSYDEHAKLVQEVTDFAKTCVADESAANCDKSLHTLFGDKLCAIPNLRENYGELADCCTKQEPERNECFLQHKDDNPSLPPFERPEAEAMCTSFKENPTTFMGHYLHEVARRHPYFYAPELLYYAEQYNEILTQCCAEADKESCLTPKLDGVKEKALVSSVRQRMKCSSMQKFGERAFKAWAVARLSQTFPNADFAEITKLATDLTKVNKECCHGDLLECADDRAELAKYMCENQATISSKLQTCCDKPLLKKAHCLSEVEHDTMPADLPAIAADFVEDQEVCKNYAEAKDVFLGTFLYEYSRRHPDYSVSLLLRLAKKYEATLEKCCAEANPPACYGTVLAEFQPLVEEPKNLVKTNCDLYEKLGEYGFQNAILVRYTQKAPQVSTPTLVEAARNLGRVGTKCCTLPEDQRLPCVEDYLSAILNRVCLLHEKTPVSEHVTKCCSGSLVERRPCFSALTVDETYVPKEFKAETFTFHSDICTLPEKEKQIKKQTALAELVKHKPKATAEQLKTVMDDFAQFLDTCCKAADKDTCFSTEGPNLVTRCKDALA
T2 sequence (P49822 25-608 limits assumed): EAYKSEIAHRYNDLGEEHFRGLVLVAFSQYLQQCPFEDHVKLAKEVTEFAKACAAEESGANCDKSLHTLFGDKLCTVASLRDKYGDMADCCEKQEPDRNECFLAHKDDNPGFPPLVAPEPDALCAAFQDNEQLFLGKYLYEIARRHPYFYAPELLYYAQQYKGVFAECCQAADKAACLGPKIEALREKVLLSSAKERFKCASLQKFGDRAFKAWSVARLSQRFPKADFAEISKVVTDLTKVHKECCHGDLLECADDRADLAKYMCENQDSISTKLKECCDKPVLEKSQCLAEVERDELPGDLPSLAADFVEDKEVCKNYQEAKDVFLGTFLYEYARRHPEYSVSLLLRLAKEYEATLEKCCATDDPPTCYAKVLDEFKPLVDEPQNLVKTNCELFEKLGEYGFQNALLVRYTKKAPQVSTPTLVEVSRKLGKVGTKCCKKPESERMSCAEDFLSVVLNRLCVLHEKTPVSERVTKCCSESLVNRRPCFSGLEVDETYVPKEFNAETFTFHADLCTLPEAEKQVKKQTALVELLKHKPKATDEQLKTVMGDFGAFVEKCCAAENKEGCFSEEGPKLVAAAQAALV
Chain of rat serum albumin (P02770 25-608 limits assumed): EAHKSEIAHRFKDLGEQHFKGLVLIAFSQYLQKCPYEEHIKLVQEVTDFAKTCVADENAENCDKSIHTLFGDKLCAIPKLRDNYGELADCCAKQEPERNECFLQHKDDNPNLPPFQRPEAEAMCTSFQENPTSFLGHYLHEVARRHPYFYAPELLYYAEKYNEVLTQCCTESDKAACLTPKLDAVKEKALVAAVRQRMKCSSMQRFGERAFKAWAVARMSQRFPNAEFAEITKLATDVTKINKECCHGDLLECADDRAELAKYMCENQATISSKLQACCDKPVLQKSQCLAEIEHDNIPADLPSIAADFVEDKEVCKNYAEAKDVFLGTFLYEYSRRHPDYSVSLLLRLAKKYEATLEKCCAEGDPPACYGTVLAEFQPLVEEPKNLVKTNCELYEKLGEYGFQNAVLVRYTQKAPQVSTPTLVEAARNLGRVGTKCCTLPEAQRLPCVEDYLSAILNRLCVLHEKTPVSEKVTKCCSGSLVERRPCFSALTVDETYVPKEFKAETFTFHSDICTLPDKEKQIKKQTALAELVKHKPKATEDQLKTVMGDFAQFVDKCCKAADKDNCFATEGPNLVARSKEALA
Chain of rabbit serum albumin (P49065 25-608 limits assumed): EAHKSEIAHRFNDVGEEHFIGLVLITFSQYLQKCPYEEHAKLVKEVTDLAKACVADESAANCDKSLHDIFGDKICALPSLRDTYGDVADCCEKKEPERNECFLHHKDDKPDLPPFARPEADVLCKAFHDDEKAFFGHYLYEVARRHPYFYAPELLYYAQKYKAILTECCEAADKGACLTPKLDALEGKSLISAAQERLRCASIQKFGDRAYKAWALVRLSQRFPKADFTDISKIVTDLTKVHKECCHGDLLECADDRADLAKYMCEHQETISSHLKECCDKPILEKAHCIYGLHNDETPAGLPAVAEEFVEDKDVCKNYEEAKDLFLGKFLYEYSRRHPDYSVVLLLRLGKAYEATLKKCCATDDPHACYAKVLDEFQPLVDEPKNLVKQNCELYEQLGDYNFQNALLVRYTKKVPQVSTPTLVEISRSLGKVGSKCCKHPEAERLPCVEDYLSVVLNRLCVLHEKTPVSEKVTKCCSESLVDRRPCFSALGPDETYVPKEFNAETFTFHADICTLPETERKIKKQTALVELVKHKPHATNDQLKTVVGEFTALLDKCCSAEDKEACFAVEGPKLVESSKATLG
T5 sequence (Q9EP73 19-238 limits assumed): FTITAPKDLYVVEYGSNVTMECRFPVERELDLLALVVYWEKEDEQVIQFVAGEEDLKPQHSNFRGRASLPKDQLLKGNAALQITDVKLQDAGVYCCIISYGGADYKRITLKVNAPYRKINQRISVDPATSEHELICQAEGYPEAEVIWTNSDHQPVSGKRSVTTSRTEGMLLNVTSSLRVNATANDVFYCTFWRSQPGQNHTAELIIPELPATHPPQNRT

B1: HSA-36 (designed binder)
chain: MIPRGLSEAKPATPEIQEIVDKVKPQLEEKTNETYGKLEAVQYKTQVLAGHYARYWPGSTNYYIKVRAGDNKYMHLKVFNGPWAQKSKVHQADRVLTGYQVDKNKDDELTGFHHHHHH
In the case of B1, the EC50 in the experiment with cynomolgus serum albumin [1] was determined as 447 nM; with rabbit serum albumin, 863 nM; in the experiment with equine serum albumin it was 662 nM; with canine serum albumin [2], 383 nM; with porcine serum albumin it was 268 nM; in the experiment with rat serum albumin it was 9.73 nM. In the experiment with human serum albumin [3], this molecule displayed an EC50 of 687 nM. The Kd is 1140 nM in the experiment with cynomolgus serum albumin [4]; 132 nM with human serum albumin [5]; 435 nM with mouse serum albumin [6]; 2600 nM in the experiment with cynomolgus serum albumin [7]; 136 nM with human serum albumin [8]; 244 nM in the experiment with mouse serum albumin [9]. The equilibrium dissociation constant (Kd) with cynomolgus serum albumin [10] is 1510 nM; with human serum albumin [11], 200 nM; with mouse serum albumin [12], 207 nM. For the same molecule, the off-rate constant (koff) with cynomolgus serum albumin [10] was determined as 0.16 s⁻¹; with human serum albumin [11] it was 0.00451 s⁻¹; in the experiment with mouse serum albumin [12] it was 0.15 s⁻¹; in the experiment with cynomolgus serum albumin [14], 0.0123 s⁻¹; with human serum albumin [15], 0.00175 s⁻¹; with mouse serum albumin [16], 0.0874 s⁻¹. Moreover, the koff worked out at 0.0505 s⁻¹ in the experiment with cynomolgus serum albumin [17] and 0.00257 s⁻¹ with human serum albumin [18]. The association rate constant (kon) was determined as 106000 M⁻¹ s⁻¹ with cynomolgus serum albumin [10]; 22500 M⁻¹ s⁻¹ with human serum albumin [11]; 726000 M⁻¹ s⁻¹ with mouse serum albumin [12]; 10800 M⁻¹ s⁻¹ with cynomolgus serum albumin [14]; 15400 M⁻¹ s⁻¹ with human serum albumin [15]; 200000 M⁻¹ s⁻¹ in the experiment with mouse serum albumin [16]. For the same molecule, the figures for the kon with human serum albumin [18] and with mouse serum albumin [19] were 18900 M⁻¹ s⁻¹ and 215000 M⁻¹ s⁻¹, respectively. The “EC50 (read off the curve)” value with human serum albumin [13] is ~400 nM; with canine serum albumin [20], ~200 nM.

B2: HSA-41, C-terminal 6x His tag cleaved (designed binder)
chain: MIPRGLSEAKPATPEIQEIVDKVKPQLEEKTNETYGKLEAVQYKTQVLANFFQRRWPGSTNYYIKVRAGDNKYMHLKVFNGPWKFRNTDRGADRVLTGYQVDKNKDDELTGFEQKLISEEDL
notes: also called His tag cleaved AFFIMER protein; C-terminally His tag cleaved AFFIMER lead clone
As to B2, the Kd with cynomolgus serum albumin [21] was found to be 280 nM; with human serum albumin [22], 7.65 nM; in the experiment with mouse serum albumin [23] it was 104 nM; with cynomolgus serum albumin [24], 189 nM; with human serum albumin [25] it was 4.71 nM; with mouse serum albumin [26], 38.1 nM.

B3: AVA04-182 (designed binder)
chain: MIPRGLSEAKPATPEIQEIVDKVKPQLEEKTNETYGKLEAVQYKTQVLAFALPEFEYMSTNYYIKVRAGDNKYMHLKVFNGPPMIRRKNEVADRVLTGYQVDKNKDDELTGF
notes: also called its control
In the experiment with mPD-L1, B3 yielded an IC50 of 112 nM.
